We go through 25 molecules from publication PMC9352680, “A comprehensive thermodynamic model for RNA binding by the Saccharomyces cerevisiae Pumilio protein PUF4”.

In the series the target is T1, PUF4 RNA-binding domain (Saccharomyces cerevisiae, UniProt P25339 537-888).
T1 sequence: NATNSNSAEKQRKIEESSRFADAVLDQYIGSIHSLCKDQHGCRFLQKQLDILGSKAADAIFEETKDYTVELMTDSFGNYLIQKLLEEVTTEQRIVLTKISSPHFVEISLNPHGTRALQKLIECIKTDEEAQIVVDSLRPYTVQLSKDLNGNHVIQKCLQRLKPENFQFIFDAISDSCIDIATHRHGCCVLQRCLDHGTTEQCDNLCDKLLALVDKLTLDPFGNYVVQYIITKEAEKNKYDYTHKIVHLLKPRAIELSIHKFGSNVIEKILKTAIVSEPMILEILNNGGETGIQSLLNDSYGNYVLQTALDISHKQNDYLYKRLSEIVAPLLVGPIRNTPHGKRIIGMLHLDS
Description: Mg; RNA-MaP; 20 mM Na-HEPES pH 7.4, 30 mM KOAc, 0.75 mM MgCl2, 0.1% Tween-20, 5% glycerol, 0.1 mg/mL BSA, 2 mM DTT; 25 C; 0.0125-409.6 nM protein. As to conditions: tags: N-His6-TEV cleaved; C-SNAP kept, Cy3B-labelled; label: tethered on chip by stalled RNA polymerase.
In general, Kd refers to the equilibrium constant for the complex coming apart. A higher Kd goes with a looser complex. UCUCUUUUACACUAUUAUUUCUCUU (ssRNA) [Id_ii_S1_P4E.4_K4.3_C4.2_[C-2T]_H4.3_A4.1_F4.1_T4.2_[G10T]] yielded a Kd of 1130 nM. That is a single-digit micromolar value.
In the case of UCUCUUUUACACUAUUAAUUCUCUU (ssRNA) [Id_ii_S1_P4E.4_K4.3_C4.2_[C-2T]_H4.3_A4.1_F4.1_T4.2_[G10A]], the affinity, expressed as Kd, was 1120 nM.
In the case of UCUCUUUUACACUAUUACCUCUCUU (ssRNA) [Id_ii_S1_P4E.4_K4.3_C4.2_[C-2T]_H4.3_A4.1_F4.1_T4.2_[G10C]_[T11C]] it was 1320 nM.
To UCUCUUUUACACUAUUAACUCUCUU (ssRNA) [Id_ii_S1_P4E.4_K4.3_C4.2_[C-2T]_H4.3_A4.1_F4.1_T4.2_[G10A]_[T11C]] belongs 977 nM.
To UCUCUUUUACACUAUUAUCUCUCUU (ssRNA) [Id_ii_S1_P4E.4_K4.3_C4.2_[C-2T]_H4.3_A4.1_F4.1_T4.2_[G10T]_[T11C]] belongs 1280 nM; to UCUCUUACACACUAUUAACUCUCUU (ssRNA) [Id_ii_S1_P4E.4_K4.3_C4.2_[C-2A]_[T-1C]_H4.3_A4.1_F4.1_T4.2_[G10A]_[T11C]], more than 2300 nM; to UCUCUUUAACACUAUUAGUUCUCUU (ssRNA) [Id_ii_S1_P4E.4_K4.3_C4.2_[C-2T]_[T-1A]_H4.3_A4.1_F4.1_T4.2], more than 2300 nM.
Take UCUCUUAGACACUAUUAACUCUCUU (ssRNA) [Id_ii_S1_P4E.4_K4.3_C4.2_[C-2A]_[T-1G]_H4.3_A4.1_F4.1_T4.2_[G10A]_[T11C]]: the Kd is more than 2300 nM.
In the case of UCUCUUAAACACUAUUAUCUCUCUU (ssRNA) [Id_ii_S1_P4E.4_K4.3_C4.2_[C-2A]_[T-1A]_H4.3_A4.1_F4.1_T4.2_[G10T]_[T11C]] it was more than 2300 nM; in that of UCUCUUUUACACUAUUACUUCUCUU (ssRNA) [Id_ii_S1_P4E.4_K4.3_C4.2_[C-2T]_H4.3_A4.1_F4.1_T4.2_[G10C]], 1160 nM; in that of UCUCUUAGACACUAUUACAUCUCUU (ssRNA) [Id_ii_S1_P4E.4_K4.3_C4.2_[C-2A]_[T-1G]_H4.3_A4.1_F4.1_T4.2_[G10C]_[T11A]], more than 2300 nM.
In the case of UCUCUUACACACUAUUACGUCUCUU (ssRNA) [Id_ii_S1_P4E.4_K4.3_C4.2_[C-2A]_[T-1C]_H4.3_A4.1_F4.1_T4.2_[G10C]_[T11G]] it was more than 2300 nM; in that of UCUCUUACACACUAUUACCUCUCUU (ssRNA) [Id_ii_S1_P4E.4_K4.3_C4.2_[C-2A]_[T-1C]_H4.3_A4.1_F4.1_T4.2_[G10C]_[T11C]], more than 2300 nM.
To UCUCUUUGUACGUUAUCUCUU (ssRNA) [Ic_S1_P4E.1_K4.1_C4.1_H4.1_A4.1_[T5C]_[A6G]_F4.1_T4.1] belongs 4.05 nM; to UCUCUUAAACACUAUUAUAUCUCUU (ssRNA) [Id_ii_S1_P4E.4_K4.3_C4.2_[C-2A]_[T-1A]_H4.3_A4.1_F4.1_T4.2_[G10T]_[T11A]], more than 2300 nM.
Molecule UCUCUUUUACACUAUUAGCUCUCUU (ssRNA) [Id_ii_S1_P4E.4_K4.3_C4.2_[C-2T]_H4.3_A4.1_F4.1_T4.2_[T11C]] came in with a Kd of 1600 nM.
For UCUCUUACACACUAUUAGCUCUCUU (ssRNA) [Id_ii_S1_P4E.4_K4.3_C4.2_[C-2A]_[T-1C]_H4.3_A4.1_F4.1_T4.2_[T11C]], the Kd was more than 2300 nM.
Molecule UCUCUUAGACACUAUUAAUUCUCUU (ssRNA) [Id_ii_S1_P4E.4_K4.3_C4.2_[C-2A]_[T-1G]_H4.3_A4.1_F4.1_T4.2_[G10A]] yielded an equilibrium dissociation constant (Kd) of more than 2300 nM.
In turn, UCUCUUUAACACUAUUAGCUCUCUU (ssRNA) [Id_ii_S1_P4E.4_K4.3_C4.2_[C-2T]_[T-1A]_H4.3_A4.1_F4.1_T4.2_[T11C]] displayed a Kd of more than 2300 nM.
In the case of UCUCUUUUACACUAUUAUAUCUCUU (ssRNA) [Id_ii_S1_P4E.4_K4.3_C4.2_[C-2T]_H4.3_A4.1_F4.1_T4.2_[G10T]_[T11A]], binding was characterised by a dissociation constant (Kd) of 944 nM.
UCUCUUUUACACUAUUACGUCUCUU (ssRNA) [Id_ii_S1_P4E.4_K4.3_C4.2_[C-2T]_H4.3_A4.1_F4.1_T4.2_[G10C]_[T11G]] displayed an equilibrium dissociation constant (Kd) of 1680 nM.
UCUCUUUUACACUAUUAGUUCUCUU (ssRNA) [Id_ii_S1_P4E.4_K4.3_C4.2_[C-2T]_H4.3_A4.1_F4.1_T4.2] came in with a dissociation constant (Kd) of 1370 nM.
To UCUCUUUGUAGUUUAUCUCUU (ssRNA) [Ic_S1_P4E.1_K4.1_C4.1_H4.1_A4.1_[T5G]_[A6T]_F4.1_T4.1] belongs 18.5 nM; to UCUCUUACACACUAUUACUUCUCUU (ssRNA) [Id_ii_S1_P4E.4_K4.3_C4.2_[C-2A]_[T-1C]_H4.3_A4.1_F4.1_T4.2_[G10C]], more than 2300 nM; to UCUCUUAAACACUAUUACCUCUCUU (ssRNA) [Id_ii_S1_P4E.4_K4.3_C4.2_[C-2A]_[T-1A]_H4.3_A4.1_F4.1_T4.2_[G10C]_[T11C]], more than 2300 nM.
